Test results as given in paper PMC9731866, “Structures of a constitutively active mutant of human IDH3 reveal new insights into the mechanisms of allosteric activation and the catalytic reaction” (The Journal of Biological Chemistry, 2022).

B1: αβ heterodimer of HsIDH3 (mutant form αMβ) (Homo sapiens; P50213:Q166A) (protein)
chain 1: TGGVQTVTLIPGDGIGPEISAAVMKIFDAAKAPIQWEERNVTAIQGPGGKWMIPSEAKESMDKNKMGLKGPLKTPIAAGHPSMNLLLRKTFDLYANVRPCVSIEGYKTPYTDVNIVTIRENTEGEYSGIEHVIVDGVVASIKLITEGASKRIAEFAFEYARNNHRSNVTAVHKANIMRMSDGLFLQKCREVAESCKDIKFNEMYLDTVCLNMVQDPSQFDVLVMPNLYGDILSDLCAGLIGGLGVTPSGNIGANGVAIFESVHGTAPDIAGKDMANPTALLLSAVMMLRHMGLFDHAARIEAACFATIKDGKSLTKDLGGNAKCSDFTEEICRRVKDLD
chain 2: not shown
notes: coexpressed alpha and beta-TEV-His6 (pQlinkN), E. coli BL21(DE3) Codon-Plus, His6 tag cleaved with TEV; 1:1 heterodimer, mutant is heterotetramer (αMβ)2 of 131-149 kDa
B2: αγ heterodimer of HsIDH3 (mutant form αMγ) (Homo sapiens; P50213:Q166A) (protein)
chain 1: TGGVQTVTLIPGDGIGPEISAAVMKIFDAAKAPIQWEERNVTAIQGPGGKWMIPSEAKESMDKNKMGLKGPLKTPIAAGHPSMNLLLRKTFDLYANVRPCVSIEGYKTPYTDVNIVTIRENTEGEYSGIEHVIVDGVVASIKLITEGASKRIAEFAFEYARNNHRSNVTAVHKANIMRMSDGLFLQKCREVAESCKDIKFNEMYLDTVCLNMVQDPSQFDVLVMPNLYGDILSDLCAGLIGGLGVTPSGNIGANGVAIFESVHGTAPDIAGKDMANPTALLLSAVMMLRHMGLFDHAARIEAACFATIKDGKSLTKDLGGNAKCSDFTEEICRRVKDLD
chain 2: FSEQTIPPSAKYGGRHTVTMIPGDGIGPELMLHVKSVFRHACVPVDFEEVHVSSNADEEDIRNAIMAIRRNRVALKGNIETNHNLPPSHKSRNNILRTSLDLYANVIHCKSLPGVVTRHKDIDILIVRENTEGEYSSLEHESVAGVVESLKIITKAKSLRIAEYAFKLAQESGRKKVTAVHKANIMKLGDGLFLQCCREVAARYPQITFENMIVDNTTMQLVSRPQQFDVMVMPNLYGNIVNNVCAGLVGGPGLVAGANYGHVYAVFETATRNTGKSIANKNIANPTATLLASCMMLDHLKLHSYATSIRKAVLASMDNENMHTPDIGGQGTTSEAIQDVIRHIRVINGRAVEA
notes: coexpressed alpha and gamma-TEV-His6 (pQlinkN), E. coli BL21(DE3) Codon-Plus, His6 tag cleaved with TEV; 1:1 heterodimer, mutant is heterotetramer (αMγ)2 of 131-149 kDa

Key:
[1] = substrate: O=C(O)C[C@H](C(=O)O)[C@@H](O)C(=O)O; assay: NADH production, Hill fit; assay type: biochemical, Homo sapiens; details: no activators, 3.2 mM NAD, 2 mM MgCl2, 33 mM Tris-acetate pH 7.4
Source text: NADH production, Hill fit on αβ heterodimer of HsIDH3 (mutant form αMβ)

[2] = substrate: O=C(O)C[C@H](C(=O)O)[C@@H](O)C(=O)O; assay: NADH production, Hill fit; assay type: biochemical, Homo sapiens; details: no activators, 3.2 mM NAD, 2 mM MgCl2, 33 mM Tris-acetate pH 7.4; remark: listed apart in the source
Source text: NADH production, Hill fit on αγ heterodimer of HsIDH3 (mutant form αMγ)

Protein | K0.5 [1] | Vmax [1] | K0.5 [2] | Vmax [2]
B1 | 0.17 ± 0.02 mM | 18 µmol/min/mg |  | 
B2 |  |  | 0.26 ± 0.11 mM | 25.5 µmol/min/mg
